Source: patent US6699662B1, “Inhibitors of staphylococcus SarA protein function involved in the expression of staphylococcal virulence factors and the use thereof in treating staphylococcal infections” (priority 1999, dated 2004)

Test system: P2-P3 promoter region
Assay: DNase I footprinting of SarA binding to the agr regulatory region
Set-up: species or system Staphylococcus aureus
Conditions: 40 pM 32P-labeled DNA; regions A1, A2, B1, B2, C1, C2
Experimental: To test this notion and identify binding sites for SarA in this region, DNase I footprinting was perfomred with the purified SarA. […] The data were quantified by phosphorimaging.
SarA was allowed to bind to the DNA in a reaction mixture containing 40 pM of ^32P-labeled DNA, 10 mM Hepes (pH 7.6), 5 mM MgCl2, 1 mM CaCl2, 1 mM DTT, and 100 mM KCl at room temperature for 30 minutes. An amount of DNase I, which produced approximately 50% non-nicked DNA, was added to the reaction mixture and incubated for 2 minutes. The reaction was quenched by addition of stop solution (80% EtOH, tRNA (1 ug/ml), 0.3 M NH4OAc) and immediately put into a dry ice/EtOH bath for 30 minutes. A visible pellet was obtained after centrifugation and washed with 70% ethanol. Following denaturing gel electrophoresis, the DNA fragments were detected and quantified by phosphoimaging. The radioactivity in the bands for samples containing SarA was subtracted from the no protein control using Microsoft Excel. The concentration of SarA required to protect a cleavage site fully was determined. To identify the regions of protection within the inter-promoter region, purine sequencing was included in the analysis. Chemical sequencing was done according to standard procedures.

B1: SarA: purified full-length recombinant S. aureus (strain DB) SarA protein expressed in E. coli (protein)
chain: AITKINDCFELLSMVTYADKLKSLIKKEFSSISFEEFAVLTYISENKEKEYYLKDIINHLNYKQPQVVKAVKILSQEDYDKKRNEHDERTVLILVNAQQRKKIESLLSRVNKRITEANNEIEL
  SarA concentration at which the footprinted regions were protected by more than 50%: 3 to 6 pM
